From patent US20220403013A1 come the findings set out here.

The target of the assay is malondialdehyde-modified LDL (MDA-LDL), human (human) (UniProt P04114). Put plainly: ELISA, MDA-LDL immobilised on plate, antibody titrated (0.01-50 µg/ml), HRP anti-human IgG detection. On the technique in general: An ELISA detects its analyte on a solid surface through an enzyme-linked reagent.

On to orticumab (antibody), for which the Kd came out at 8 nM.

In general, Kd refers to the equilibrium constant for the complex coming apart. Lower therefore signals tighter binding.
